Patent US20190367615A1 (BEIJING HANMI PHARM, published 2019)

Assays:
[1] = target: T1, Recombinant human PD-1-Fc (human, UniProt Q15116 25-167, limits assumed); experiment: competition ELISA, PD-1-Fc coated, competitor biotin-labeled PD-L1
T1 construct: also called recombinant human PD-1-Fc protein; not shown: Fc part
Description: Recombinant human PD-1-Fc was coated on a 96-well high-absorbing ELISA plate with a carbonate buffer solution with pH 9.6, the coating concentration was 1 μg/mL, the coating amount was 100 μL per well, and the coating was carried at 4° C. out overnight. The plate was washed five times with PBST and blocked with 300 μL/well of PBST containing 1% BSA and incubated at 25° C. for 1 hour. The plate was washed five times with PBST. The positive control and the anti-human PD-1 antibody sample were added, 50 μL per well. […] The plate was washed five times with PBST. Then, Streptavidin-HRP (BD Pharmingen, Catalog Number 554066) 1:1000 diluted in PBST containing 1% BSA was added, 100 μL per well, incubated at 25° C. for 1 hour. The plate was washed five times with PBST. 100 μL/well of colorimetric substrate TMB was added and incubated at room temperature for 10 minutes. Color development was terminated by adding 100 μL/well of 1 M H₂SO₄. The absorbance at 450 nm was read on a microplate reader.

[2] = target: T2, Recombinant human PD-1 (Sino Biological Inc., Catalog Number 10377-H08H) (human, UniProt Q15116 25-167); experiment: ELISA, human PD-1 coated
T2 construct: Bought protein; also called antigen PD-1
Description: Recombinant human PD-1 (purchased from Sino Biological Inc.) was coated on a 96-well high-absorbing ELISA plate with a carbonate buffer solution with pH 9.6, the coating concentration was 1 μg/mL, the coating amount was 100 μL per well, and the coating was carried out at 4° C. overnight. The plate was washed five times with PBST and blocked with 300 μL/well of PBST containing 1% BSA, and then incubated at 25° C. for 1 hour. The plate was washed five times with PBST. […] The plate was washed five times with PBST. Then, horseradish peroxidase-labeled anti-human IgG antibody (Chemicon, Catalog Number AP309P) 1:2000 diluted in PBST containing 1% BSA was added, 100 μL per well, incubated at 25° C. for 1 hour. The plate was washed five times with PBST. 100 μL/well of colorimetric substrate TMB was added and incubated at room temperature for 10 minutes. Color development was terminated by adding 100 μL/well of 1 M H₂SO₄. The absorbance at 450 nm was read on a microplate reader.

T1 sequence (Q15116 25-167 limits assumed): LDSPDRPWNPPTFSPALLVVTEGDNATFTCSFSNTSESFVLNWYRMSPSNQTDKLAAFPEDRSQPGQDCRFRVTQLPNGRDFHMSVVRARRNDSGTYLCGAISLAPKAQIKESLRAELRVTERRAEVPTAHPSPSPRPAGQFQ
T2 sequence (Q15116 25-167 limits assumed): as above

IC50 [1] [nM]	EC50 [2] [nM]	Binder
1.1	0.025	AH00291 (antibody, human IgG4 S228P, kappa, also called humanized anti-human PD-1 monoclonal antibody AH00291) heavy: not shown light: DIVLTQSPATLSLSPGERATLSCRANQSISNNLHWYQQKPGQAPRLLIRFASQSISGIPARFSGSGSGTDFTLTISSLEPEDFAVYFCQQSDNWPLTFGGGTKVEIKRTVAAPSVFIFPPSDEQLKSGTASVVCLLNNFYPREAKVQWKVDNALQSGNSQESVTEQDSKDSTYSLSSTLTLSKADYEKHKVYACEVTHQGLSSPVTKSFNRGEC
1.09	0.024	AH00290 (antibody, human IgG4 S228P, kappa, V domains shown, also called humanized anti-human PD-1 monoclonal antibody AH00290) VH: EVNLVESGGGLVQPGGSLRLSCAASGFTFSSYGMSWVRQAPGKGLEWVSSISGGGRYTYYPDSMKGRFTISRDNSKNTLYLQMNSLRAEDTAVYYCVYEYFYTMDYWGQGTLVTVSS VL: DIVLTQSPATLSLSPGERATLSCRANQSISNNLHWYQQKPGQAPRLLIRFASQSISGIPARFSGSGSGTDFTLTISSLEPEDFAVYFCQQSDNWPLTFGGGTKVEIKR
1.36	0.042	AH00291-S28A (antibody, human IgG4 S228P, kappa) heavy: not shown light: DIVLTQSPATLSLSPGERATLSCRANQAISNNLHWYQQKPGQAPRLLIRFASQSISGIPARFSGSGSGTDFTLTISSLEPEDFAVYFCQQSDNWPLTFGGGTKVEIKRTVAAPSVFIFPPSDEQLKSGTASVVCLLNNFYPREAKVQWKVDNALQSGNSQESVTEQDSKDSTYSLSSTLTLSKADYEKHKVYACEVTHQGLSSPVTKSFNRGEC
1.2	0.026	AH00293 (antibody, human IgG4 S228P, kappa, V domains shown, also called humanized anti-human PD-1 monoclonal antibody AH00293) VH: EVNLVESGGGLVQPGGSLRLSCAASGFTFSSYGMSWVRQAPGKGLEWVASISGGGRYTYYPDSMKGRFTISRDNSKNNLYLQMNSLRAEDTAVYYCVYEYFYTMDYWGQGTLVTVSS VL: DIVLTQSPATLSLSPGERATLSCRANQSISNNLHWYQQKPGQAPRLLIRFASQSISGIPARFSGSGSGTDFTLTISSLEPEDFAVYYCQQSDNWPLTFGGGTKVEIKR
1.49	0.041	AH00294-N26Q (antibody, human IgG4 S228P, kappa) heavy: not shown light: DVVLTQSPATLSLSPGERATLSCRAQQSISNNLHWYQQKPGQAPRLLIRFASQSISGIPARFSGSGSGTDFTLTISSLEPEDFAVYFCQQSDNWPLTFGGGTKVEIKRTVAAPSVFIFPPSDEQLKSGTASVVCLLNNFYPREAKVQWKVDNALQSGNSQESVTEQDSKDSTYSLSSTLTLSKADYEKHKVYACEVTHQGLSSPVTKSFNRGEC
1.46	0.047	AH00294-S28A (antibody, human IgG4 S228P, kappa) heavy: not shown light: DVVLTQSPATLSLSPGERATLSCRANQAISNNLHWYQQKPGQAPRLLIRFASQSISGIPARFSGSGSGTDFTLTISSLEPEDFAVYFCQQSDNWPLTFGGGTKVEIKRTVAAPSVFIFPPSDEQLKSGTASVVCLLNNFYPREAKVQWKVDNALQSGNSQESVTEQDSKDSTYSLSSTLTLSKADYEKHKVYACEVTHQGLSSPVTKSFNRGEC
1.07	0.037	AH00296-N26S (antibody, human IgG4 S228P, kappa, V domains shown, also called AII00296-N26S) VH: EVNLVESGGGLVQPGGSLRLSCAASGFTFSSYGMSWVRQAPGKGLEWVASISGGGRYTYYPDSMKGRFTISRDNSKNTLYLQMNSLRAEDTAVYYCVYEYFYTMDYWGQGTLVTVSS VL: DIVLTQSPATLSLSPGERATLSCRASQSISNNLHWYQQKPGQAPRLLIRFASQSISGIPARFSGSGSGTDFTLTISSLEPEDFAVYFCQQSDNWPLTFGGGTKVEIKR
1.21	0.027	AH00296 (antibody, human IgG4 S228P, kappa, also called humanized anti-human PD-1 monoclonal antibody AH00296) heavy: not shown light: DIVLTQSPATLSLSPGERATLSCRANQSISNNLHWYQQKPGQAPRLLIRFASQSISGIPARFSGSGSGTDFTLTISSLEPEDFAVYFCQQSDNWPLTFGGGTKVEIKRTVAAPSVFIFPPSDEQLKSGTASVVCLLNNFYPREAKVQWKVDNALQSGNSQESVTEQDSKDSTYSLSSTLTLSKADYEKHKVYACEVTHQGLSSPVTKSFNRGEC
1.22	0.028	AH00298 (antibody, human IgG4 S228P, kappa, also called humanized anti-human PD-1 monoclonal antibody AH00298) heavy: not shown light: EVVLTQSPATLSLSPGERATLSCRANQSISNNLHWYQQKPGQAPRLLIRFASQSISGIPARFSGSGSGTDFTLTISSLEPEDFAVYFCQQSDNWPLTFGGGTKVEIKRTVAAPSVFIFPPSDEQLKSGTASVVCLLNNFYPREAKVQWKVDNALQSGNSQESVTEQDSKDSTYSLSSTLTLSKADYEKHKVYACEVTHQGLSSPVTKSFNRGEC
1.27	0.044	AH00296-N26Q (antibody, human IgG4 S228P, kappa, V domains shown) VH: EVNLVESGGGLVQPGGSLRLSCAASGFTFSSYGMSWVRQAPGKGLEWVASISGGGRYTYYPDSMKGRFTISRDNSKNTLYLQMNSLRAEDTAVYYCVYEYFYTMDYWGQGTLVTVSS VL: DIVLTQSPATLSLSPGERATLSCRAQQSISNNLHWYQQKPGQAPRLLIRFASQSISGIPARFSGSGSGTDFTLTISSLEPEDFAVYFCQQSDNWPLTFGGGTKVEIKR
1.35	0.032	AH00294 (antibody, human IgG4 S228P, kappa, also called humanized anti-human PD-1 monoclonal antibody AH00294) heavy: not shown light: DVVLTQSPATLSLSPGERATLSCRANQSISNNLHWYQQKPGQAPRLLIRFASQSISGIPARFSGSGSGTDFTLTISSLEPEDFAVYFCQQSDNWPLTFGGGTKVEIKRTVAAPSVFIFPPSDEQLKSGTASVVCLLNNFYPREAKVQWKVDNALQSGNSQESVTEQDSKDSTYSLSSTLTLSKADYEKHKVYACEVTHQGLSSPVTKSFNRGEC
1.2	0.034	BMIII (antibody, human IgG4 S228P, kappa, V domains shown) VH: EVNLVESGGGLVQPGGSLRLSCAASGFTFSSYGMSWVRQTPGKGLEWVASISGGGRYTYYPDSMKGRFTISRDNSKNNLYLQMNSLRAEDTAVYYCVYEYFYTMDYWGQGTLVTVSS VL: DVVLTQSPATLSVSPGERVTLSCRANQSISNNLHWYQQKPGQSPRLLIRFASQSISGIPARFSGSGSGTDFTLTISSVEPEDFGVYFCQQSDNWPLTFGGGTKLEIKR
1.19	0.025	AH00295 (antibody, human IgG4 S228P, kappa, also called humanized anti-human PD-1 monoclonal antibody AH00295) heavy: not shown light: EVVLTQSPATLSLSPGERATLSCRANQSISNNLHWYQQKPGQAPRLLIRFASQSISGIPARFSGSGSGTDFTLTISSLEPEDFAVYFCQQSDNWPLTFGGGTKVEIKRTVAAPSVFIFPPSDEQLKSGTASVVCLLNNFYPREAKVQWKVDNALQSGNSQESVTEQDSKDSTYSLSSTLTLSKADYEKHKVYACEVTHQGLSSPVTKSFNRGEC
1.48	0.043	AH00294-N26S (antibody, human IgG4 S228P, kappa) heavy: not shown light: DVVLTQSPATLSLSPGERATLSCRASQSISNNLHWYQQKPGQAPRLLIRFASQSISGIPARFSGSGSGTDFTLTISSLEPEDFAVYFCQQSDNWPLTFGGGTKVEIKRTVAAPSVFIFPPSDEQLKSGTASVVCLLNNFYPREAKVQWKVDNALQSGNSQESVTEQDSKDSTYSLSSTLTLSKADYEKHKVYACEVTHQGLSSPVTKSFNRGEC
1.75	0.048	AH00296-S28A (antibody, human IgG4 S228P, kappa, V domains shown) VH: EVNLVESGGGLVQPGGSLRLSCAASGFTFSSYGMSWVRQAPGKGLEWVASISGGGRYTYYPDSMKGRFTISRDNSKNTLYLQMNSLRAEDTAVYYCVYEYFYTMDYWGQGTLVTVSS VL: DIVLTQSPATLSLSPGERATLSCRANQAISNNLHWYQQKPGQAPRLLIRFASQSISGIPARFSGSGSGTDFTLTISSLEPEDFAVYFCQQSDNWPLTFGGGTKVEIKR
1.57	0.046	AH00291-N26Q (antibody, human IgG4 S228P, kappa) heavy: not shown light: DIVLTQSPATLSLSPGERATLSCRAQQSISNNLHWYQQKPGQAPRLLIRFASQSISGIPARFSGSGSGTDFTLTISSLEPEDFAVYFCQQSDNWPLTFGGGTKVEIKRTVAAPSVFIFPPSDEQLKSGTASVVCLLNNFYPREAKVQWKVDNALQSGNSQESVTEQDSKDSTYSLSSTLTLSKADYEKHKVYACEVTHQGLSSPVTKSFNRGEC
1.43	0.039	AH00291-N26S (antibody, human IgG4 S228P, kappa) heavy: not shown light: DIVLTQSPATLSLSPGERATLSCRASQSISNNLHWYQQKPGQAPRLLIRFASQSISGIPARFSGSGSGTDFTLTISSLEPEDFAVYFCQQSDNWPLTFGGGTKVEIKRTVAAPSVFIFPPSDEQLKSGTASVVCLLNNFYPREAKVQWKVDNALQSGNSQESVTEQDSKDSTYSLSSTLTLSKADYEKHKVYACEVTHQGLSSPVTKSFNRGEC
1.3	0.028	BMIV (antibody, human IgG4 S228P, kappa, V domains shown) VH: EVNLVESGGGLVQPGGSLRLSCAASGFTFSSYGMSWVRQTPGKGLEWVASISGGGRYTYYPDSMKGRFTISRDNSKNNLHLQMSSLRAEDTAVYYCVYEYFYTMDYWGQGTLVTVSS VL: DVVLTQSPATLSVSPGERVTLSCRANQSISNNLHWYQQKSHQSPRLLIRFASQSISGIPARFSGSGSGTDFTLTISSVETEDFGVYFCQQSDNWPLTFGGGTKLEIKR
